Results reported in CN108503708A.
Like-named read-outs stand apart in the source and are kept apart here.

Legend:
[1] = target: hCD47-mFc (human CD47 extracellular region D1 fused to mouse IgG2a Fc) (human (homo sapiens)); assay: competition ELISA by the method of Example 3 (hCD47-mFc coated, hCD172a-D1M1-His as competitor)
[2] = target: hCD47-mFc (human CD47 extracellular region D1 fused to mouse IgG2a Fc) (human (homo sapiens)); assay: as above; remark: listed apart in the source
[3] = target: huCD47-D1-his (recombinant human CD47 extracellular region D1 with C-terminal His tag) (human (homo sapiens)) (UniProt Q08722); assay: SPR BIAcore, by the method of Example 3 (antibody captured, huCD47-D1-his analyte)
[4] = target: huCD47-D1-his (recombinant human CD47 extracellular region D1 with C-terminal His tag) (human (homo sapiens)) (UniProt Q08722); assay: SPR BIAcore, against hS2C3 as reference
[5] = target: hCD47 mutant Q1A (human (homo sapiens)) (UniProt Q08722); assay: SPR BIAcore, against natural hCD47 as reference
[6] = target: hCD47 mutant E35A (human (homo sapiens)) (UniProt Q08722); assay: SPR BIAcore, against natural hCD47 as reference

| IC50 [1] | IC50 [2] | Kd [3] | koff [3] | kon [3] | fold improvement of affinity over hS2C3 [4] | fold decrease of affinity against natural hCD47 [5] | fold increase of affinity against natural hCD47 [6] | Binder |
| --- | --- | --- | --- | --- | --- | --- | --- | --- |
| < 5 nM | 4.25 nM | 2.32 nM | 0.00193 s⁻¹ | 833000 M⁻¹ s⁻¹ | 5 fold | 100 fold | 4 fold | H10C7+L26A6 (affinity-matured variant of hS2C3) (antibody, part only; not given: constant regions, V domains shown, part only) VH: QVQLVQSGAEVKKPGASVKVSCKASGYTFTDYYMHWVRQAPGQRLEWMGWIYPGSGNTRYSQKFKDRVTMTRDTSTSTVYMELSSLRSEDTAVYYCARREEDYFDYWGQGTLVTVSS |
| < 5 nM | 3.52 nM | 1.83 nM | 0.0017 s⁻¹ | 930000 M⁻¹ s⁻¹ |  |  |  | H11E5+L26A6 (affinity-matured variant of hS2C3) (antibody, part only; not given: constant regions, V domains shown, part only) VH: QVQLVQSGAEVKKPGASVKVSCKASGYTFTDYYMHWVRQAPGQRLEWMGWIYPSSGNTKYAQKFKDRVTMTRDTSTSTVYMELSSLRSEDTAVYYCARREEDYFDYWGQGTLVTVSS |
